# B1: AtLFY-SAM (SAM domain of A. thaliana LEAFY) (domain or fragment, Arabidopsis thaliana, UniProt Q00958 38-151, looked up)
# chain: QTAAFGMRLGGLEGLFGPYGIRFYTAAKIAELGFTASTLVGMKDEELEEMMNSLSHIFRWELLVGERYGIKAAVRAERRRLQEEEEEESSRRRHLLLSAAGDSGTHHALDALSQ
# notes: LEAFY (LFY) of Arabidopsis thaliana, residues 38-151 of the A. thaliana LFY cDNA (plasmid pETH201, vector pETM-11); also called SAM domain of A. thaliana LFY; source: E. coli Rosetta2 (DE3), purified (Ni-Sepharose, TEV cleavage, Superdex-200); not shown: 6 x His, N-terminal, cleaved
# B2: AGI-II (dsDNA)
# DNA 1: CGTTTAAATTTAATCCAATGGTTACAATTTTAATACTATCAAATGTCTATTGGATTTATACCCAATGTGTTAATGGGTTG
# DNA 2: CAACCCATTAACACATTGGGTATAAATCCAATAGACATTTGATAGTATTAAAATTGTAACCATTGGATTAAATTTAAACG
# What was measured:
# [1] = biological target: GbLFY-SAM (N-terminal SAM domain of Ginkgo biloba LEAFY, wild type) (Ginkgo biloba); assay: SEC-MALS; SEC-MALLS on Superdex-200 10/300GL in buffer A, 20 °C, 0.5 ml/min; 50 µl at ~4.5 mg/ml injected; [RE+TE] is an equimolar mixture of the TE and RE mutants
# [2] = biological target: the molecule itself; assay: SEC; Superdex-200 10/300GL in buffer A, 4 °C, calibrated with protein standards; molecular mass estimated at different protein concentrations
# [3] = biological target: T1, AtLFY (Arabidopsis thaliana, UniProt Q00958 1-420); assay: EMSA; 500 nM; behaves like GbLFYΔ; EMSA: 20 mM Tris-HCl pH 7.5, 150 mM NaCl, 1% glycerol, 0.25 mM EDTA, 2 mM MgCl2, 0.01% Tween-20, 3 mM TCEP, 28 ng/ml fish sperm DNA, 10 nM probe, 25-500 nM prot
# T1 sequence: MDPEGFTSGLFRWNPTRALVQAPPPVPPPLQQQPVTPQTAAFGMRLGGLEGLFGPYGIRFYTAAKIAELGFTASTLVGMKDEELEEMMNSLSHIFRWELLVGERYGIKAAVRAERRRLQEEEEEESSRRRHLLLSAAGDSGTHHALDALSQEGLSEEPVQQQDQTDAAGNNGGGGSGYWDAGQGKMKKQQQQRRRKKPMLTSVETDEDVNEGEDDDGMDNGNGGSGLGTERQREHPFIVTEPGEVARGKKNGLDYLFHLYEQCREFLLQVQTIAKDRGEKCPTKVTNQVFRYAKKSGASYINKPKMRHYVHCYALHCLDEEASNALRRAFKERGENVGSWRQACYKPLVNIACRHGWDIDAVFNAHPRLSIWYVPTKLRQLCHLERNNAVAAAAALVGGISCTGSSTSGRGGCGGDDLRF
molecule,measurement,setting,value
"GbLFY-SAM (N-terminal SAM domain of Ginkgo biloba LEAFY, wild type) (domain or fragment)",stoichiometry N,[1],< 8 monomers
B1,binding result,[2],binds
B2,binding result,[3],binds

# — article PMC4844672 (Nature Communications, 2016)
